Source: PMC9482650, “Quantitative fragmentomics allow affinity mapping of interactomes” (Nature Communications, 2022)

T1: SHANK1, Q9Y566
T1 sequence (Q9Y566 658-767, limits assumed, looked up): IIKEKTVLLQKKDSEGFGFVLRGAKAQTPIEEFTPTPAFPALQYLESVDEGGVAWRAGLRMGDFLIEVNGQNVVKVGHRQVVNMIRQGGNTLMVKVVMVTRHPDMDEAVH

T2: MPDZ_12, O75970
T2 sequence (O75970 1857-1958, limits assumed, looked up): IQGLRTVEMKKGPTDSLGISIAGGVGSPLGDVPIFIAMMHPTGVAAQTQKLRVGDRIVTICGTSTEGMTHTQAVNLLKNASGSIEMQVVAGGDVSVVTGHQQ

T3: LIN7A, O14910
T3 sequence (O14910 103-200, limits assumed, looked up): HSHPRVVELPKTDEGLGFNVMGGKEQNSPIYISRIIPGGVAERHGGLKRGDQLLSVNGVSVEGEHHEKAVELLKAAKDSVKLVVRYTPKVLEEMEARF

T4: DLG3_2, Q92796
T4 sequence (Q92796 221-321, limits assumed, looked up): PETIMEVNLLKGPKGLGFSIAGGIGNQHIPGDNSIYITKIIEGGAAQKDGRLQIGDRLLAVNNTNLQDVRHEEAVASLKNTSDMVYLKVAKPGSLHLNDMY

T5: FRMPD1, Q5SYB0
T5 sequence (Q5SYB0 52-145, limits assumed, looked up): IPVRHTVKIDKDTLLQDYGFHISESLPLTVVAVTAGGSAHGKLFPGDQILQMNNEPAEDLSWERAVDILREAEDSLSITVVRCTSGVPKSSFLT

T6: ARHGEF11, O15085
T6 sequence (O15085 42-136, limits assumed, looked up): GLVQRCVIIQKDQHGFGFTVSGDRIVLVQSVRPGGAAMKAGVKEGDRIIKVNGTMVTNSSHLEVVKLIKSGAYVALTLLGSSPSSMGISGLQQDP

T7: PTPN13_1, Q12923
T7 sequence (Q12923 1088-1188, limits assumed, looked up): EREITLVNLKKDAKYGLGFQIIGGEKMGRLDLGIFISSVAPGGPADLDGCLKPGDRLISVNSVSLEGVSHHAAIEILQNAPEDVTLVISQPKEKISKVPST

T8: PCLO, Q9Y6V0
T8 sequence (Q9Y6V0 4491-4600, limits assumed, looked up): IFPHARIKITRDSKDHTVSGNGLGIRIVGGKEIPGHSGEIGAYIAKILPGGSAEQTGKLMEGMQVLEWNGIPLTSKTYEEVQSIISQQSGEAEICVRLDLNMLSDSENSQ

T9: TX1BP3, O14907
T9 sequence (O14907 10-122, limits assumed, looked up): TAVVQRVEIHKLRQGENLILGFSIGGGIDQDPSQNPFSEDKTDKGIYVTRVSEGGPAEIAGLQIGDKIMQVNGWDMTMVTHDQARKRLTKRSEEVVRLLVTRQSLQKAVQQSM


Key:
Experiment in all cases: holdup assay
Set-up in all cases: key: below the threshold = too weak to quantify, mostly under pKd 3.1 to 4
Conditions in all cases: plain residues with an end cap or a label only (N-terminal biotin on a linker: ado-ado)
[1] = molecular target: DLG5_1, Q8TDM6
Chain of DLG5_1, Q8TDM6 (Q8TDM6 617-713): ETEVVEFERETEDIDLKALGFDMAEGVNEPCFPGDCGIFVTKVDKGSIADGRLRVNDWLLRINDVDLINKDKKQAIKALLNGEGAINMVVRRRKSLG

[2] = molecular target: LNX1_1, Q8TBB1
Chain of LNX1_1, Q8TBB1 (Q8TBB1 261-371): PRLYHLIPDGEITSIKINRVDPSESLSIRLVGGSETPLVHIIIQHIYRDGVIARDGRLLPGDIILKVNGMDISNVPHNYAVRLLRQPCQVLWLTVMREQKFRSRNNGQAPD

[3] = molecular target: PDZRN4_1, Q6ZMN7
Chain of PDZRN4_1, Q6ZMN7 (Q6ZMN7 213-318): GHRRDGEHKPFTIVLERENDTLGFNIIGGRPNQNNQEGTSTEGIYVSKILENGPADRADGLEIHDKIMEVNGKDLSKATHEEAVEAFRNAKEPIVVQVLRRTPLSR

[4] = molecular target: MAGI2_3, Q86UL8
Chain of MAGI2_3, Q86UL8 (Q86UL8 600-682): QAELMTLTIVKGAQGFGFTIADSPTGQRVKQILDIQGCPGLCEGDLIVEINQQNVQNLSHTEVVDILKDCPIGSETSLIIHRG

[5] = molecular target: NHERF2_2, Q15599
Chain of NHERF2_2, Q15599 (Q15599 142-238): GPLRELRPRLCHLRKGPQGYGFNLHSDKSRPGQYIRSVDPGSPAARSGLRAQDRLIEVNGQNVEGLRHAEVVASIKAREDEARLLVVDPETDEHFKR

[6] = molecular target: PTPN3, P26045
Chain of PTPN3, P26045 (P26045 505-587): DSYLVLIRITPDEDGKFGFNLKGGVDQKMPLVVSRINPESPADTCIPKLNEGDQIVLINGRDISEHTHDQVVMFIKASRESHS

[7] = molecular target: T1, SHANK1, Q9Y566
[8] = molecular target: GORASP2, Q9H8Y8
[9] = molecular target: T2, MPDZ_12, O75970
[10] = molecular target: GRASP, Q7Z6J2
Chain of GRASP, Q7Z6J2 (Q7Z6J2 96-193): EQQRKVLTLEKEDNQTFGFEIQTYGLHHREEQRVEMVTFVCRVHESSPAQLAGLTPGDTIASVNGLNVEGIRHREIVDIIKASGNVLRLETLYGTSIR

[11] = molecular target: MAGI2_2, Q86UL8
Chain of MAGI2_2, Q86UL8 (Q86UL8 410-522): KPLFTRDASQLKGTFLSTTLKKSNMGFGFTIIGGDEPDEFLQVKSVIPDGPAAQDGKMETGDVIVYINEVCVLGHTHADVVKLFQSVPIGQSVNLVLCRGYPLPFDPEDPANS

[12] = molecular target: T3, LIN7A, O14910
[13] = molecular target: Inadl_9, Q8NI35
Chain of Inadl_9, Q8NI35 (Q8NI35 1530-1615): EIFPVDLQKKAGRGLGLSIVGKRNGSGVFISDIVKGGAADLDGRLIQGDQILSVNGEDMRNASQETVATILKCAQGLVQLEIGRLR

[14] = molecular target: DLG2_3, Q15700
[15] = molecular target: GRID2IP_1, A4D2P6
Chain of GRID2IP_1, A4D2P6 (A4D2P6 1-87): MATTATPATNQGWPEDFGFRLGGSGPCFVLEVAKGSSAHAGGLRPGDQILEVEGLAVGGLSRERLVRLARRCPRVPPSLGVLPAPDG

[16] = molecular target: Inadl_5, Q8NI35
Chain of Inadl_5, Q8NI35 (Q8NI35 673-780): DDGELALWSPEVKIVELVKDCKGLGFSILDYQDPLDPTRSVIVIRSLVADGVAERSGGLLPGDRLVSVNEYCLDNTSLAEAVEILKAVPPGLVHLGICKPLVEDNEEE

[17] = molecular target: T4, DLG3_2, Q92796
[18] = molecular target: GIPC2, Q8TF65
Chain of GIPC2, Q8TF65 (Q8TF65 112-203): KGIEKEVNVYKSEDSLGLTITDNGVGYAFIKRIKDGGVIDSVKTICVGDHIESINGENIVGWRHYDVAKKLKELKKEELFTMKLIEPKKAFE

[19] = molecular target: T5, FRMPD1, Q5SYB0
[20] = molecular target: DLG1_1, Q12959
[21] = molecular target: T6, ARHGEF11, O15085
[22] = molecular target: MAGI2_6, Q86UL8
Chain of MAGI2_6, Q86UL8 (Q86UL8 1141-1229): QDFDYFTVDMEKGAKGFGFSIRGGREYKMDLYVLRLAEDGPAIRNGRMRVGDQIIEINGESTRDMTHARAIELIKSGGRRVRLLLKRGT

[23] = molecular target: Inadl_1, Q8NI35
Chain of Inadl_1, Q8NI35 (Q8NI35 113-229): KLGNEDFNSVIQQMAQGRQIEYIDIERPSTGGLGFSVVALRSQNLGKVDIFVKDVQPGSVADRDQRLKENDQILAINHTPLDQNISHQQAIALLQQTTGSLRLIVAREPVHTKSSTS

[24] = molecular target: Inadl_10, Q8NI35
Chain of Inadl_10, Q8NI35 (Q8NI35 1673-1763): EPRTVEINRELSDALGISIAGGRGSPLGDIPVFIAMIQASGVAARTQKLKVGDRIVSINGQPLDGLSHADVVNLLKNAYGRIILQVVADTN

[25] = molecular target: MAST2, Q6P0Q8
Chain of MAST2, Q6P0Q8 (Q6P0Q8 1099-1202): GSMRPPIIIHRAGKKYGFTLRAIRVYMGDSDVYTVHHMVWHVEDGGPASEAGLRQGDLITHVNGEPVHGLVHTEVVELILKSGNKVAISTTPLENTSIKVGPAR

[26] = molecular target: T7, PTPN13_1, Q12923
[27] = molecular target: T8, PCLO, Q9Y6V0
[28] = molecular target: T9, TX1BP3, O14907
[29] = molecular target: NHERF4_4, Q86UT5
Chain of NHERF4_4, Q86UT5 (Q86UT5 464-550): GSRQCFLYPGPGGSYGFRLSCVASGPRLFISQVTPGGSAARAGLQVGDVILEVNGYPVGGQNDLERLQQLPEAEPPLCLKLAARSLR

Binder | pKd [1] | pKd [2] | pKd [3] | pKd [4] | pKd [5] | pKd [6] | pKd [7] | pKd [8] | pKd [9] | pKd [10] | pKd [11] | pKd [12] | pKd [13] | pKd [14] | pKd [15] | pKd [16] | pKd [17] | pKd [18] | pKd [19] | pKd [20] | also measured
PAPSSGKDYV [CLDN1, O95832] | below the threshold | below the threshold | below the threshold | below the threshold | below the threshold | below the threshold | below the threshold | 3.67 | below the threshold | below the threshold | below the threshold | below the threshold | 3.61 | below the threshold | below the threshold | below the threshold | below the threshold | below the threshold | below the threshold | below the threshold | pKd [21]: below the threshold; pKd [22]: below the threshold; pKd [23]: below the threshold; pKd [24]: below the threshold; pKd [25]: 3.84; pKd [26]: below the threshold; pKd [27]: below the threshold; pKd [28]: below the threshold; pKd [29]: below the threshold
LPHPHSTTRV [NLGN2, Q8NFZ4] | below the threshold | 3.64 | below the threshold | 4.24 | 3.75 | below the threshold | 4.81 | 3.92 | below the threshold | 4.18 | 4.93 | below the threshold | below the threshold | 4.42 | below the threshold | below the threshold | 3.96 | below the threshold | below the threshold | 3.78 | pKd [21]: 3.96; pKd [22]: below the threshold; pKd [23]: below the threshold; pKd [24]: below the threshold; pKd [25]: 5.19; pKd [26]: below the threshold; pKd [27]: below the threshold; pKd [28]: 3.79; pKd [29]: below the threshold

The next lines start with results.

pKd [1] | pKd [2] | pKd [3] | pKd [4] | pKd [5] | pKd [6] | pKd [7] | pKd [8] | pKd [9] | pKd [10] | pKd [11] | pKd [12] | pKd [13] | pKd [14] | pKd [15] | pKd [16] | pKd [17] | pKd [18] | pKd [19] | pKd [20] | Binder | also measured
3.7 | 4.19 | 4.98 | 4.06 | 3.72 | 4.95 | 3.94 | 3.51 | below the threshold | 3.9 | 3.76 | 4.15 | 3.93 | 4.41 | 3.7 | 3.56 | 4.22 | 4.32 | below the threshold | 4.25 | EVEEFPETSV [TRPV3, Q8NET8] | pKd [21]: 4.79; pKd [22]: 4.71; pKd [23]: below the threshold; pKd [24]: below the threshold; pKd [25]: 5.5; pKd [26]: 3.58; pKd [27]: below the threshold; pKd [28]: 4.8; pKd [29]: below the threshold
below the threshold | 3.86 | 3.66 | below the threshold | 4.5 | 4.72 | 4.23 | 4.16 | below the threshold | 4.73 | below the threshold | below the threshold | below the threshold | below the threshold | below the threshold | below the threshold | below the threshold | below the threshold | below the threshold | below the threshold | QGLAERISVL [PRKD2, Q9BZL6] | pKd [21]: 4.77; pKd [22]: 3.98; pKd [23]: below the threshold; pKd [24]: below the threshold; pKd [25]: 5.53; pKd [26]: below the threshold; pKd [27]: below the threshold; pKd [28]: 4.38; pKd [29]: 3.97
